According to US7163817 (COUNCIL OF SCIENTIFIC AND INDUSTRIAL RESEARCH A NEW DEHLI …, dated 2007):

Legend:
[1] = biological target: T1, human fibrin (immobilised, fibrin-Sepharose) (human, UniProt P02671 36-629; P02675 45-491; P02679 27-437); assay: refolding with fibrin-Sepharose beads; washes with binding buffer and 2 M urea, elution with 6 M urea
T1 construct: Fibrin coupled to Sepharose beads; Its preparation and chain limits are not described; also called human fibrin-Sepharose
T1 sequence 1: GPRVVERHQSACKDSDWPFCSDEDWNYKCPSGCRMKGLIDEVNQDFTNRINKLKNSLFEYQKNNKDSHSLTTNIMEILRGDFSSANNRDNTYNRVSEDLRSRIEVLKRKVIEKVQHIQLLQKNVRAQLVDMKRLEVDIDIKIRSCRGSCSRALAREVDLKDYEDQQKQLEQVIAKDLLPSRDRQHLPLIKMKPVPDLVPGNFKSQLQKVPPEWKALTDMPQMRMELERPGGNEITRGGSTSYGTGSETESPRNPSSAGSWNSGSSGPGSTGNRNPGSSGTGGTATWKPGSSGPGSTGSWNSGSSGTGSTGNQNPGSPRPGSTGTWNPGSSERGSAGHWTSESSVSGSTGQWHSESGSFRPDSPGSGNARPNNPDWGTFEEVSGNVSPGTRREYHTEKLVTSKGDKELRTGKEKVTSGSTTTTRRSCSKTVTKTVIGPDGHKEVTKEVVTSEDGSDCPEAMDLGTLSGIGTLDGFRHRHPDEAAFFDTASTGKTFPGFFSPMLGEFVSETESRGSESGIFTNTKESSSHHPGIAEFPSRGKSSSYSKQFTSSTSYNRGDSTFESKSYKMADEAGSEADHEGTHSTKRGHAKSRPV
T1 sequence 2: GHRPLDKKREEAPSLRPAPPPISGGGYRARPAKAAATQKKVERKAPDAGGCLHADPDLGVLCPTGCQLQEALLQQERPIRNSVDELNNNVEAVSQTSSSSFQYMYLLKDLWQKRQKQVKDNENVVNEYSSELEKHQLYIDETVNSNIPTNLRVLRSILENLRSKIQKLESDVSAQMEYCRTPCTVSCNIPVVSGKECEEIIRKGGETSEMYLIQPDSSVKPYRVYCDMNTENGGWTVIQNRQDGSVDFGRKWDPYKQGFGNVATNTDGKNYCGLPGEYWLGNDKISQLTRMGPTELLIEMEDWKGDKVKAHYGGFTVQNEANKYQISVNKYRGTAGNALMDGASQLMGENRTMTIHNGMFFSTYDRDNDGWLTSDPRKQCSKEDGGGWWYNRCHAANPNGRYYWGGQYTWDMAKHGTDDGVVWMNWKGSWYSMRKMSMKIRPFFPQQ
T1 sequence 3: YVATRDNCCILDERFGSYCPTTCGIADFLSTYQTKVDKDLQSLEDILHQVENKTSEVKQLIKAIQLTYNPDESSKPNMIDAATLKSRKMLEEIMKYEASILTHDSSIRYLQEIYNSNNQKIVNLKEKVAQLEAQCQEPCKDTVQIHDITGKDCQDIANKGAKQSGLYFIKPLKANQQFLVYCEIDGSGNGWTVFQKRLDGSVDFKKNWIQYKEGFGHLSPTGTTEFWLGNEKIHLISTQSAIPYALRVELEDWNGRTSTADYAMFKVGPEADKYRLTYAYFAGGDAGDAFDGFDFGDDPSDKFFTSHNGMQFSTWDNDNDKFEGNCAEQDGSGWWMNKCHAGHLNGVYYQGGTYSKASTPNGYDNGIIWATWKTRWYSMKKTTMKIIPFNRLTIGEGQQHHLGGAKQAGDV

[2] = biological target: T1, human fibrin (immobilised, …); assay: fibrin-Sepharose affinity chromatography; washes with binding buffer and 2 M urea, elution with 6 M urea

B1: SK-FBD(1,2) chimeric protein (other)
chain: MIAGPEWLLDRPSVNNSQLVVSVAGTVEGTNQDISLKFFEIDLTSRPAHGGKTEQGLSPKSKPFATDSGAMSHKLEKADLLKAIQEQLIANVHSNDDYFEVIDFASDATITDRNGKVYFADKDGSVTLPTQPVQEFLLSGHVRVRPYKEKPIQNQAKSVDVEYTVQFTPLNPDDDFRPGLKDTKLLKTLAIGDTITSQELLAQAQSILNKNHPGYTIYERDSSIVTHDNDIFRTILPMDQEFTYRVKNREQAYRINKKSGLNEEINNTDLISEKYYVLKKGEKPYDPFDRSHLKLFTIKYVDVDTNELLKSEQLLTASERNLDFRDLYDPRDKAKLLYNNLDAFGIMDYTLTGKVEDNHDDTNRIITVYMGKRPEGENASYHLAGGGQAQQMVQPQSPVAVSQSKPGCYDNGKHYQINQQWERTYLGNVLVCTCYGGSRGFNCESKPEAEETCFDKYTGNTYRVGDTYERPKDSMIWDCTCIGAGRGRISC
notes: Start residue 1 is inferred from primer MY-10, which hybridises at the natural TG site QAQQMV
fibrin-bound protein eluted with 6 M urea [1]: ~4 mg

B2: SK control (streptokinase, fibrin-Sepharose experiment) (other)
chain: IAGPEWLLDRPSVNNSQLVVSVAGTVEGTNQDISLKFFEIDLTSRPAHGGKTEQGLSPKSKPFATDSGAMSHKLEKADLLKAIQEQLIANVHSNDDYFEVIDFASDATITDRNGKVYFADKDGSVTLPTQPVQEFLLSGHVRVRPYKEKPIQNQAKSVDVEYTVQFTPLNPDDDFRPGLKDTKLLKTLAIGDTITSQELLAQAQSILNKNHPGYTIYERDSSIVTHDNDIFRTILPMDQEFTYRVKNREQAYRINKKSGLNEEINNTDLISEKYYVLKKGEKPYDPFDRSHLKLFTIKYVDVDTNELLKSEQLLTASERNLDFRDLYDPRDKAKLLYNNLDAFGIMDYTLTGKVEDNHDDTNRIITVYMGKRPEGENASYHLAYDKDRYTEEEREVYSYLRYTGTPIPDNPNDK
binding result [2]: no binding
